Measured values taken from the Human Domainome abundance scans (Beltran et al. 2025).
± gives the uncertainty stated by the source.

B1: Tesmin, residues 368 to 403; numbered along this chain, Q9Y4I5 (parent)
chain: KGCNCRRSGCLKNYCECYEAQIMCSSICKCIGCKNY

Variants of: B1
Assay: abundance fitness (aPCA) (normalised: wild type 0, dead -1); higher = more abundant; growth selection in yeast, the domain comes from the species named
Details: Homo sapiens

Variant | abundance fitness
S26M | -0.384 ± 0.17
S26Q | 0.091 ± 0.1
S26V | -0.159 ± 0.083
S26D | -0.101 ± 0.16
S26R | -0.241 ± 0.081
S26T | -0.095 ± 0.1
S26P | -0.624 ± 0.28
K29R | 0.034 ± 0.069
K29N | 0.054 ± 0.22
K29I | -0.334 ± 0.34
K29C | -0.048 ± 0.15
K29M | -0.016 ± 0.1
K29P | -0.091 ± 0.09
K29Q | 0.18 ± 0.11
K29H | 0.419 ± 0.26
K29T | 0.024 ± 0.095
K29D | 0.171 ± 0.087
K29S | 0.051 ± 0.09
K29G | 0.24 ± 0.066
K29V | 0.011 ± 0.072
K29W | -0.186 ± 0.087
K29E | 0.238 ± 0.084
S25K | -0.196 ± 0.11
S25C | -0.393 ± 0.11

Variant | abundance fitness
S25A | -0.051 ± 0.1
S25H | -0.269 ± 0.12
S25L | -0.415 ± 0.081
S25T | -0.168 ± 0.11
S25P | -0.521 ± 0.15
S25G | 0.093 ± 0.072
S25W | -0.45 ± 0.086
S25E | -0.315 ± 0.13
S25M | -0.324 ± 0.12
S25D | -0.334 ± 0.17
S25V | -0.509 ± 0.11
S25F | -0.711 ± 0.14
N35L | -0.861 ± 0.22
N35F | -0.614 ± 0.34
N35S | -0.023 ± 0.093
N35V | -0.362 ± 0.09
N35T | -0.167 ± 0.11
N35D | 0.18 ± 0.12
N35W | -0.233 ± 0.1
N35K | -0.44 ± 0.16
N35R | -0.019 ± 0.077
N35E | 0.11 ± 0.09
N35Q | 0.114 ± 0.11
N35A | 0.141 ± 0.079

Variant | abundance fitness
N35C | -0.384 ± 0.3
N35Y | -0.64 ± 0.36
N35P | -0.055 ± 0.094
N35G | 0.211 ± 0.074
G32W | -0.349 ± 0.12
G32Q | -0.414 ± 0.4
G32V | -0.443 ± 0.094
G32D | -0.454 ± 0.13
G32S | -0.087 ± 0.14
G32L | -0.96 ± 0.13
G32C | -0.592 ± 0.23
G32T | -0.655 ± 0.18
G32R | -0.249 ± 0.082
G32E | -0.033 ± 0.11
G32A | -0.196 ± 0.084
G32P | -0.082 ± 0.12
C28P | -0.195 ± 0.1
C28A | -0.248 ± 0.082
C28S | -0.169 ± 0.082
C28Y | -0.973 ± 0.2
C28K | -0.377 ± 0.23
C28R | -0.575 ± 0.07
C28Q | -0.564 ± 0.14
C28V | -0.42 ± 0.072

Variant | abundance fitness
C28G | -0.219 ± 0.068
C28D | -0.3 ± 0.14
C28M | -0.411 ± 0.11
C28T | -0.14 ± 0.1
C28W | -0.7 ± 0.091
C28E | -0.157 ± 0.08
C28L | -0.738 ± 0.12
I27A | 0.162 ± 0.079
I27N | 0.04 ± 0.098
I27V | 0.112 ± 0.085
I27T | 0.159 ± 0.099
I27R | 0.085 ± 0.07
I27Y | -0.431 ± 0.14
I27K | 0.153 ± 0.091
I27W | -0.703 ± 0.096
I27P | 0.118 ± 0.096
I27L | -0.089 ± 0.086
I27S | 0.009 ± 0.076
I27E | 0.207 ± 0.082
I27M | -0.014 ± 0.13
I27Q | 0.176 ± 0.089
I27D | 0.119 ± 0.14
I27C | -1.72 ± 0.24
C24W | -0.647 ± 0.082

Variant | abundance fitness
C24M | -0.378 ± 0.089
C24Q | -0.072 ± 0.091
C24T | -0.294 ± 0.11
C24G | -0.008 ± 0.077
C24E | 0.051 ± 0.096
C24L | -0.402 ± 0.089
C24K | 0.262 ± 0.28
C24S | -0.201 ± 0.097
C24D | -0.107 ± 0.1
C24A | -0.15 ± 0.079
C24V | -0.421 ± 0.088
C24P | -0.21 ± 0.1
Y36V | 0.286 ± 0.1
Y36A | 0.209 ± 0.11
Y36N | 0.02 ± 0.14
Y36R | 0.305 ± 0.086
Y36K | -0.317 ± 0.26
Y36P | 0.31 ± 0.095
Y36I | 0.371 ± 0.13
Y36T | 0.15 ± 0.18
Y36D | 0.145 ± 0.13
Y36L | -0.05 ± 0.1
Y36W | 0.02 ± 0.11
Y36S | -0.016 ± 0.14

Variant | abundance fitness
Y36G | 0.193 ± 0.1
C33S | -0.121 ± 0.081
C33A | -0.011 ± 0.076
C33L | -0.232 ± 0.083
C33G | -0.025 ± 0.064
C33P | -0.014 ± 0.084
C33K | -0.123 ± 0.093
C33M | -0.147 ± 0.16
C33W | -0.449 ± 0.086
C33H | -0.106 ± 0.17
C33E | 0.109 ± 0.076
C33R | -0.245 ± 0.069
C33T | -0.14 ± 0.1
C33D | -0.064 ± 0.094
C33Q | -0.362 ± 0.2
C33V | -0.055 ± 0.08
I31A | 0.309 ± 0.08
I31S | 0.147 ± 0.081
I31Y | -0.322 ± 0.24
I31L | -0.021 ± 0.078
I31W | -0.099 ± 0.081
I31M | 0.081 ± 0.08
I31C | -0.02 ± 0.13
I31V | 0.125 ± 0.074

Variant | abundance fitness
I31P | 0.047 ± 0.11
I31Q | 0.114 ± 0.1
I31R | 0.056 ± 0.067
I31E | 0.311 ± 0.09
I31F | -0.171 ± 0.18
I31T | 0.211 ± 0.12
I31N | 0.083 ± 0.12
I31K | -0.108 ± 0.15
I31G | 0.15 ± 0.074
C30Q | -0.196 ± 0.096
C30I | -0.945 ± 0.2
C30S | -0.355 ± 0.08
C30T | -0.468 ± 0.12
C30V | -0.352 ± 0.087
C30K | -0.249 ± 0.12
C30G | -0.29 ± 0.066
C30P | -0.209 ± 0.095
C30M | -1.15 ± 0.25
C30R | -0.425 ± 0.072
C30E | -0.226 ± 0.076
C30H | -0.498 ± 0.15
C30A | -0.252 ± 0.074
C30L | -1 ± 0.11
